The supplement of paper PMC10065799, “High-throughput profiling of sequence recognition by tyrosine kinases and SH2 domains using bacterial peptide display” (eLife, 2023)

Experiments:
Grb2 SH2 = Grb2 SH2 (UniProt P62993); assay: SH2 binding enrichment of the phosphorylated peptide, bacterial display (enrichment ratio); higher = better substrate or ligand; peptides without Tyr show the background
c-Src SH2 = assay: as above
SHP2-C SH2 = assay: as above
AncSZ = assay: phosphorylation enrichment, bacterial display (enrichment ratio); higher = better substrate or ligand; peptides without Tyr show the background
c-Src = assay: as above
Hck = Hck (UniProt P08631); assay: as above
EPHB1 = EPHB1 (UniProt P54762); assay: as above
c-Abl (mouse) = assay: as above
FGFR3 = FGFR3 (UniProt P22607); assay: as above
Chain of FGFR3 (P22607 whole entry, looked up): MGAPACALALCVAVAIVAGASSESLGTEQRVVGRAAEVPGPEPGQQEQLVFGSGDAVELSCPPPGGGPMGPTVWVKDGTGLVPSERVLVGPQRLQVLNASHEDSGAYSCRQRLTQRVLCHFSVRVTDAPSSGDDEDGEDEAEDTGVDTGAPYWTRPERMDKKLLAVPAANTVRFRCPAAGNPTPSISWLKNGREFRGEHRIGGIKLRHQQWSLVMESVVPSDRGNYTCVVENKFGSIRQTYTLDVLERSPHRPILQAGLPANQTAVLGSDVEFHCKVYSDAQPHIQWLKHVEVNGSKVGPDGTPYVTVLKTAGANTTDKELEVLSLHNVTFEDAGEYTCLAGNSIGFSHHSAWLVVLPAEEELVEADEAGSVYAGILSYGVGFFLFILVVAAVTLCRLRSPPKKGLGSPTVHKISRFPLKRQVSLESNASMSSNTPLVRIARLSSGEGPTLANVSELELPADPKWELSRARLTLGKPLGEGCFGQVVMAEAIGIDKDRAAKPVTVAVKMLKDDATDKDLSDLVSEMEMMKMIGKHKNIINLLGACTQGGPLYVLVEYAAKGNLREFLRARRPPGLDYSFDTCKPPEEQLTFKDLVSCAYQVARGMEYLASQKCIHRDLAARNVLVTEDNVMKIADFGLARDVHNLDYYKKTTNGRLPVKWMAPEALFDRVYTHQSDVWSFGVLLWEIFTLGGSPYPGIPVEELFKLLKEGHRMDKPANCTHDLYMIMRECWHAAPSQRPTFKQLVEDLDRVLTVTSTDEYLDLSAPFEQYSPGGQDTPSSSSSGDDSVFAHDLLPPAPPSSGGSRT

FGFR1 = FGFR1 (UniProt P11362); assay: as above
Fer (mouse) = assay: as above
MERTK = MERTK (UniProt Q12866); assay: as above
Fes = Fes (UniProt P07332); assay: as above
Chain of Fes (P07332 whole entry, looked up): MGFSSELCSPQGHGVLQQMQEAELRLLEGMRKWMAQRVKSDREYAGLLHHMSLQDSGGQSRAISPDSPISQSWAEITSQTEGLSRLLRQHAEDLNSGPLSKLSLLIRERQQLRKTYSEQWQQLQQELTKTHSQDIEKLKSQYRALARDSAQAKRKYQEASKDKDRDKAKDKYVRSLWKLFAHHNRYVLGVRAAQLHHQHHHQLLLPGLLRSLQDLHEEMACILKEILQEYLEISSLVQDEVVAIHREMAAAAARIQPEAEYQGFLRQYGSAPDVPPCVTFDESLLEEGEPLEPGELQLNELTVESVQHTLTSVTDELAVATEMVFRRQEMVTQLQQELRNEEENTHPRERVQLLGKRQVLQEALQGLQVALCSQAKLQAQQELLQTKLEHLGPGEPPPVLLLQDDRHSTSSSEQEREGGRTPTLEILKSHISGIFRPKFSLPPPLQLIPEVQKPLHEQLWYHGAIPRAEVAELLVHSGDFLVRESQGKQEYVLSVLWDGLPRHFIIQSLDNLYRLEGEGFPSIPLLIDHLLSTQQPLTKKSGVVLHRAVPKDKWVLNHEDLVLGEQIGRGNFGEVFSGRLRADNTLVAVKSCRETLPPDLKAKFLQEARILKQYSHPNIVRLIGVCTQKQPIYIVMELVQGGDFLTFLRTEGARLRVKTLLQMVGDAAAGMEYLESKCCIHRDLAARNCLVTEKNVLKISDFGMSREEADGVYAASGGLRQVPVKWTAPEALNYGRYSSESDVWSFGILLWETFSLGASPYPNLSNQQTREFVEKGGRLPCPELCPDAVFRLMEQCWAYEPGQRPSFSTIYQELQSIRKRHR

Fyn = Fyn (UniProt P06241); assay: as above
Chain of Fyn (P06241 whole entry, looked up): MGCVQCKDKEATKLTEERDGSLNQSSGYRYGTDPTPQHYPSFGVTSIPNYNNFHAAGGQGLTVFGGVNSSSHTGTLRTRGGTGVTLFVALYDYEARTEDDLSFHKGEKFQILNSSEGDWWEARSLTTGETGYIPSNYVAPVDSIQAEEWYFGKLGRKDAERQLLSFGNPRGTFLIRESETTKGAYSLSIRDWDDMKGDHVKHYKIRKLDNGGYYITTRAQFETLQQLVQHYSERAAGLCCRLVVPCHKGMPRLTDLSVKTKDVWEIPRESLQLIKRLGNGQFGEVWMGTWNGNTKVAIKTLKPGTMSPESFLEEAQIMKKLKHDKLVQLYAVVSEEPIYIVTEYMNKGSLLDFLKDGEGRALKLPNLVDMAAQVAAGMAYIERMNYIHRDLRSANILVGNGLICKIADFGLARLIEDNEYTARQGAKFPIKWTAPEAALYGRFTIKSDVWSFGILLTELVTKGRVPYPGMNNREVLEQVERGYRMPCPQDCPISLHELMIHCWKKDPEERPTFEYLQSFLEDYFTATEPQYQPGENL

Jak2 = Jak2 (UniProt O60674); assay: as above
Chain of Jak2 (O60674 whole entry, looked up): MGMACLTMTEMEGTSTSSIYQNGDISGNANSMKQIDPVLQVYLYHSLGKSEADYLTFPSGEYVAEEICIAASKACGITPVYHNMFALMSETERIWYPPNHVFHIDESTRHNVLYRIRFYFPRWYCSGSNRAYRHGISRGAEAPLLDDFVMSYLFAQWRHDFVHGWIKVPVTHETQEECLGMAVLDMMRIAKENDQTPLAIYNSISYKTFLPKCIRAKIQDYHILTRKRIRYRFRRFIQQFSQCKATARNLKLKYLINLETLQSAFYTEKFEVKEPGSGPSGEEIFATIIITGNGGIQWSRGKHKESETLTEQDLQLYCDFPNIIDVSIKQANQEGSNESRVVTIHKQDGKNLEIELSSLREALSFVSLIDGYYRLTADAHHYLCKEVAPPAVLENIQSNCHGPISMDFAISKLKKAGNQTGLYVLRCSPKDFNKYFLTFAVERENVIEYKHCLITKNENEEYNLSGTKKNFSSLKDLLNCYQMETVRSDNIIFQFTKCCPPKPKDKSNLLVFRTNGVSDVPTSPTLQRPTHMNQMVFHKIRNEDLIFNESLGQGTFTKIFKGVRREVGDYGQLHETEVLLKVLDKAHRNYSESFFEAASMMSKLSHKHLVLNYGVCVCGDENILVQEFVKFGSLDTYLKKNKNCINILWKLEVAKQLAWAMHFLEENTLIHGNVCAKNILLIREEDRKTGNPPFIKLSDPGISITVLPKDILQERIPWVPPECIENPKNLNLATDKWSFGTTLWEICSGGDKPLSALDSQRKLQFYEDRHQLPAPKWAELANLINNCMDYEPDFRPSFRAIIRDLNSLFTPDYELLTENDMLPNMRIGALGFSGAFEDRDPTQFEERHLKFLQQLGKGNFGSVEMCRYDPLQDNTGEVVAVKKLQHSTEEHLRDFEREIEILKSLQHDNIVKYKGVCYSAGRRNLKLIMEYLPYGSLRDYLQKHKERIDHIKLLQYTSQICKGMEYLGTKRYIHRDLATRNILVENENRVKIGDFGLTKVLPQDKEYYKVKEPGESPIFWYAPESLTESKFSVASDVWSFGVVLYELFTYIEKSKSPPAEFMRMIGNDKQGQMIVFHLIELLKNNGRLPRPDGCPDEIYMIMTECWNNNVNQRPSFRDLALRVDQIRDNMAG

EPHB2 = EPHB2 (UniProt P29323); assay: as above
Chain of EPHB2 (P29323 whole entry, looked up, the tested form may be a part): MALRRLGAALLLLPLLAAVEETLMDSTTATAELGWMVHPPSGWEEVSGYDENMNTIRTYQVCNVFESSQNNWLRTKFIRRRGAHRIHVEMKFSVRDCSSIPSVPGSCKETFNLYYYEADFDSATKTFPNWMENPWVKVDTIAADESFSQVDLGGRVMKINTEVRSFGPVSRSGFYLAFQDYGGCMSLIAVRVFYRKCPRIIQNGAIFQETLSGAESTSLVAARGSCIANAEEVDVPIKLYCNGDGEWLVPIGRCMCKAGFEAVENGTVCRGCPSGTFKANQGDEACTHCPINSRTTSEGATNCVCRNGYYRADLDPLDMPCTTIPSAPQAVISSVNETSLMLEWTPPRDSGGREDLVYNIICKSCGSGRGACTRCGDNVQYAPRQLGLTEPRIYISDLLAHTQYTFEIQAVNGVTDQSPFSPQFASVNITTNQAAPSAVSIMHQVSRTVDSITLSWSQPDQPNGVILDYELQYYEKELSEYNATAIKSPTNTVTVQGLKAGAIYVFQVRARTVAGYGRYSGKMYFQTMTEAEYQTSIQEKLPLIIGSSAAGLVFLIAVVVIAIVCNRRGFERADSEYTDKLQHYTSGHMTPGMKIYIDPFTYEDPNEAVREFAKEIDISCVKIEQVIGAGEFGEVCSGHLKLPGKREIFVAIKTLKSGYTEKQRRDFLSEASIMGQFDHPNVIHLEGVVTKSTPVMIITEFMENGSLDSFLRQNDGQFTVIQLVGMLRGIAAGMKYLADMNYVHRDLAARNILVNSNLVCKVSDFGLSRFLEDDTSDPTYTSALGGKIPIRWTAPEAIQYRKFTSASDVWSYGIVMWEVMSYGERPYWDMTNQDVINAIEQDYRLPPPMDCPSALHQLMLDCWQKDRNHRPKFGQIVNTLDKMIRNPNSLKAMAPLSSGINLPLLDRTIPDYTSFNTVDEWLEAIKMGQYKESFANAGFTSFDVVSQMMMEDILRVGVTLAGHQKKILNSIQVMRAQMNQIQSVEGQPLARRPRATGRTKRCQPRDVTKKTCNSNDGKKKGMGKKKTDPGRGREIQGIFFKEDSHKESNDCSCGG
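For SH2 binding enrichment of the phosphorylated peptide, bacterial display in this document: peptide library displayed on the E. coli surface as eCPX fusions, selected cells deep-sequenced, score is each peptide's frequency after selection divided by its frequency in the input.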
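For phosphorylation enrichment, bacterial display in this document: 11-residue human phosphosite peptides and single-mutation variants displayed on the E. coli surface, counted by deep sequencing, each peptide's frequency after selection divided by its frequency in the unselected input library; frequency after pTyr selection over input frequency; kinase dosed for 20-30% of maximal phosphorylation in three min.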

Chain of Grb2 SH2 (P62993 whole entry, looked up): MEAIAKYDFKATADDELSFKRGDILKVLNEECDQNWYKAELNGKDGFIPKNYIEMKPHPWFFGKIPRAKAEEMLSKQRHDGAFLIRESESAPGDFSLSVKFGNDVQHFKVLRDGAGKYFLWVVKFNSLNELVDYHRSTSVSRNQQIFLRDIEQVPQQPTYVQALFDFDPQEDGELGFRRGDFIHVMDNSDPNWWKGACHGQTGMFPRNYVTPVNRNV

Sequence | SH2 binding enrichment (Grb2 SH2) | SH2 binding enrichment (c-Src SH2) | SH2 binding enrichment (SHP2-C SH2) | phosphorylation enrichment (AncSZ) | phosphorylation enrichment (c-Src) | phosphorylation enrichment (Hck) | phosphorylation enrichment (EPHB1) | phosphorylation enrichment (c-Abl (mouse)) | phosphorylation enrichment (FGFR3) | phosphorylation enrichment (FGFR1) | phosphorylation enrichment (Fer (mouse)) | phosphorylation enrichment (MERTK) | phosphorylation enrichment (Fes) | phosphorylation enrichment (Fyn) | phosphorylation enrichment (Jak2) | phosphorylation enrichment (EPHB2)
LDYNEYVRDLN [HPRT1_Y198_F199V] | 0.795 | 0.757 | 1.03 | 1.63 | 0.565 | 0.712 | 0.761 | 0.587 | 1.07 | 0.951 | 0.535 | 0.441 | 1.23 | 0.695 | 1.06 | 0.993
RIDPDYVGRVR [IGSF9_Y81] | 0.758 | 0.583 | 0.755 | 0.871 | 0.563 | 0.403 | 0.534 | 0.65 | 0.482 | 0.496 | 0.384 | 0.405 | 0.702 | 0.481 | 0.778 | 0.402
CTTIRYNFMCN [TP53_Y234_H233R_YF] | 1.87 | 1.65 | 1.82 | 0.948 | 0.372 | 0.435 | 0.552 | 0.618 | 0.684 | 0.434 | 0.501 | 0.407 | 0.983 | 0.521 | 0.833 | 0.613
CLEKEYFDQHF [NPC1_Y394_R389C] | 0.906 | 0.752 | 0.547 | 1.53 | 0.585 | 0.508 | 0.581 | 0.902 | 1.13 | 0.949 | 0.593 | 0.406 | 1.32 | 0.514 | 1.04 | 0.572
ISMAGYSIPEL [EDAR_Y406_T403M] | 0.827 | 10.4 | 0.861 | 0.647 | 0.508 | 0.437 | 0.395 | 1.15 | 0.54 | 0.494 | 0.455 | 0.573 | 0.787 | 0.448 | 0.68 | 0.553
AVISVYDLVAV [PSEN1_Y256] | 1.03 | 1.39 | 1.03 | 1.24 | 4.51 | 6.2 | 6.18 | 0.753 | 0.577 | 0.429 | 13 | 6.38 | 1.2 | 6.35 | 0.82 | 4.92
GLAELYEFQKK [CKAP5_Y1854_K1857Q_YF] | 0.666 | 0.795 | 0.473 | 0.973 | 0.937 | 1.23 | 0.59 | 0.428 | 0.94 | 0.539 | 0.656 | 0.526 | 0.857 | 0.64 | 0.58 | 0.564
RASGIYYVPKG [APBB1IP_Y340] | 1.1 | 0.955 | 0.767 | 1.39 | 8.24 | 15.1 | 16.6 | 43.9 | 5.79 | 5.75 | 1.82 | 19.8 | 1.24 | 15.1 | 4.09 | 9.84
TQTPPYVKKHR [LARP1B_Y457_P462R] | 1.18 | 0.954 | 0.956 | 0.774 | 0.624 | 0.649 | 0.575 | 1.18 | 1.22 | 0.683 | 0.684 | 0.541 | 1.23 | 0.531 | 1.04 | 0.545
NFAKMYCNPDA [KNL1_Y489_YF] | 0.789 | 2.03 | 0.633 | 0.942 | 0.538 | 0.572 | 0.502 | 0.836 | 0.636 | 0.569 | 0.517 | 0.536 | 1.02 | 0.569 | 0.766 | 0.706
LTYHMYADPNI [SOS1_Y618_F623I] | 0.71 | 8.46 | 1.41 | 2.56 | 9.95 | 4.78 | 5.79 | 3.47 | 3.13 | 4.27 | 1.23 | 3.73 | 1.59 | 6.07 | 2.03 | 6.28
LQPNNYQFCGG [CSF1R_Y969] | 1.24 | 1.44 | 0.889 | 1.49 | 0.632 | 0.86 | 4.08 | 2.74 | 1.09 | 1.04 | 0.627 | 1.6 | 1.18 | 1.14 | 1.24 | 2.2
KAIMTYVFSFF [ACTN4_Y260_S262F_YF] | 1.26 | 0.888 | 1.19 | 0.989 | 0.425 | 0.502 | 0.553 | 0.526 | 0.725 | 0.443 | 0.454 | 0.431 | 0.945 | 0.464 | 0.698 | 0.461
EGNERYEGYCV [GRIA3_Y451] | 0.881 | 2.3 | 0.693 | 0.982 | 0.579 | 0.574 | 0.542 | 0.761 | 0.742 | 0.575 | 0.579 | 0.418 | 1.14 | 0.544 | 0.944 | 0.562
FQKNVYSEELR [LMNA_Y211_I210V] | 1.24 | 0.566 | 0.591 | 0.674 | 0.68 | 0.486 | 0.456 | 0.535 | 0.449 | 0.418 | 0.417 | 0.518 | 0.727 | 0.613 | 0.672 | 0.48
LVPPRYARSEI [PKP2_Y194] | 0.771 | 0.538 | 0.787 | 1.26 | 0.394 | 0.783 | 0.597 | 0.345 | 0.941 | 0.74 | 0.697 | 0.528 | 1.34 | 0.631 | 0.495 | 0.72
KPEKTYGLRNE [CEP43_Y267_K271N] | 0.594 | 0.534 | 0.758 | 0.494 | 0.439 | 0.406 | 0.39 | 0.551 | 0.371 | 0.394 | 0.321 | 0.397 | 0.569 | 0.37 | 0.512 | 0.362

Sequence | SH2 binding enrichment (Grb2 SH2) | SH2 binding enrichment (c-Src SH2) | SH2 binding enrichment (SHP2-C SH2) | phosphorylation enrichment (AncSZ) | phosphorylation enrichment (c-Src) | phosphorylation enrichment (Hck) | phosphorylation enrichment (EPHB1) | phosphorylation enrichment (c-Abl (mouse)) | phosphorylation enrichment (FGFR3) | phosphorylation enrichment (FGFR1) | phosphorylation enrichment (Fer (mouse)) | phosphorylation enrichment (MERTK) | phosphorylation enrichment (Fes) | phosphorylation enrichment (Fyn) | phosphorylation enrichment (Jak2) | phosphorylation enrichment (EPHB2)
RNDRVYQPLRD [CD3D_Y149_Q147R] | 0.845 | 0.943 | 0.727 | 0.604 | 1.55 | 5.18 | 0.629 | 0.689 | 0.616 | 0.41 | 0.475 | 0.786 | 0.785 | 0.675 | 0.509 | 0.432
TRTDAYAVSSF | 0.729 | 0.837 | 0.525 | 0.78 | 0.443 | 0.357 | 0.383 | 0.645 | 0.534 | 0.567 | 0.405 | 0.388 | 0.657 | 0.419 | 1.08 | 0.464
SVTCTYSPALF [TP53_Y126_N131Y_YF] | 0.795 | 0.422 | 0.685 | 1.51 | 1 | 0.695 | 0.872 | 1.05 | 1.17 | 0.542 | 0.727 | 0.479 | 1.74 | 0.837 | 1.52 | 0.694
QADVIYVNTQL [MERTK_Y872] | 1.26 | 0.608 | 0.699 | 1.61 | 1.27 | 2.19 | 2.52 | 1 | 1.4 | 2.29 | 8.63 | 0.925 | 1.43 | 2.13 | 1.18 | 0.962
ADDSYYTVRSA [ZAP70_Y493_A495V] | 0.733 | 0.874 | 0.753 | 1.56 | 2.45 | 2.89 | 0.709 | 0.611 | 5.2 | 7.54 | 0.425 | 0.784 | 0.941 | 2.01 | 1.47 | 0.637
MKKMHYVDPDH [ST3GAL5_Y99] | 0.9 | 0.548 | 0.672 | 0.512 | 0.402 | 0.367 | 0.32 | 0.41 | 0.357 | 0.338 | 0.32 | 0.332 | 0.513 | 0.364 | 0.392 | 0.311
AKKVFYVNETR [SHH_Y253_I255N] | 4.17 | 0.743 | 0.814 | 0.576 | 0.319 | 0.338 | 0.594 | 0.459 | 0.494 | 0.42 | 0.338 | 0.363 | 0.737 | 0.307 | 0.526 | 0.448
MEYLPYGSLRD [JAK2_Y934] | 0.723 | 0.498 | 1.19 | 1.45 | 4.9 | 5.07 | 2.63 | 1.02 | 1.02 | 1.15 | 1.25 | 0.511 | 1.26 | 4.56 | 1.41 | 1.41
KLIETYFSKNY [PLP1_Y50] | 0.716 | 0.37 | 0.461 | 0.701 | 0.41 | 0.52 | 0.371 | 0.574 | 0.453 | 0.334 | 0.285 | 0.374 | 0.732 | 0.355 | 0.719 | 0.329
LTDRGYSFVTT [ACTA1_Y200_E197D] | 0.988 | 10 | 6.52 | 1.38 | 0.6 | 0.677 | 0.852 | 1.17 | 0.756 | 0.772 | 0.653 | 0.846 | 1.23 | 0.8 | 1.88 | 1.04
QFFQSYFNNNF [ZNF236_Y644] | 1.57 | 0.755 | 1.02 | 0.766 | 0.549 | 0.532 | 0.981 | 0.455 | 0.841 | 0.643 | 0.37 | 0.627 | 1.14 | 0.682 | 1.6 | 0.29
ERIEFYELDKK [PMM2_Y145] | 0.728 | 0.708 | 0.626 | 1.05 | 0.49 | 0.588 | 0.652 | 0.771 | 0.76 | 0.395 | 0.742 | 0.393 | 1.09 | 0.484 | 0.892 | 0.554
AEVIWYKGDEV | 0.822 | 0.475 | 0.684 | 1.13 | 0.474 | 0.602 | 0.707 | 1.15 | 0.784 | 0.433 | 0.491 | 0.399 | 1.41 | 0.394 | 1.42 | 0.572
LFSINYLHFGD [KDM4C_Y201_E206D_YF] | 1.5 | 1.24 | 1.23 | 1.32 | 0.612 | 0.71 | 1.19 | 0.968 | 1.22 | 1.07 | 0.813 | 0.783 | 1.56 | 0.561 | 1.56 | 0.538
GCCSWYRGWAP [TIMP3_Y195_Y191C] | 1.56 | 1.24 | 1.14 | 0.944 | 3.1 | 0.784 | 0.563 | 0.59 | 0.966 | 1.38 | 3.84 | 0.459 | 0.967 | 0.651 | 0.705 | 0.565
GGGGSYNDFGN [HNRNPA1_Y312] | 0.745 | 0.513 | 0.659 | 0.599 | 0.441 | 0.474 | 0.433 | 0.458 | 0.5 | 0.471 | 0.33 | 0.422 | 0.791 | 1.17 | 0.579 | 0.39
